Test [1] addresses Methanothermobacter thermautotrophicus 70S ribosome (M. thermautotrophicus (endogenous in M. thermautotrophicus cells)) (UniProt O26110). Put plainly: MST; fluorescently labelled (DY-495) 70S, 50S or 30S kept constant, unlabelled aaRS or control protein titrated (mSerRS 2.5 nM-40.8 µM, ArgRS 5.6 nM-91.9 µM on 70S); 20 mM Tris-HCl pH 7.5, 150 mM NaCl, 6 mM MgCl2, 1 mM DTT, 0.05% Tween-20, 0.4 mg/ml BSA; hyperbolic fit.

Test [2] concerns the target Methanothermobacter thermautotrophicus large ribosomal subunit (M. thermautotrophicus (endogenous in M. thermautotrophicus cells)) (UniProt O26110). The test is described as above.

Chain of Methanothermobacter thermautotrophicus 70S ribosome (M. thermautotrophicus (endogenous in M. thermautotrophicus cells)) (O26110 whole entry, looked up): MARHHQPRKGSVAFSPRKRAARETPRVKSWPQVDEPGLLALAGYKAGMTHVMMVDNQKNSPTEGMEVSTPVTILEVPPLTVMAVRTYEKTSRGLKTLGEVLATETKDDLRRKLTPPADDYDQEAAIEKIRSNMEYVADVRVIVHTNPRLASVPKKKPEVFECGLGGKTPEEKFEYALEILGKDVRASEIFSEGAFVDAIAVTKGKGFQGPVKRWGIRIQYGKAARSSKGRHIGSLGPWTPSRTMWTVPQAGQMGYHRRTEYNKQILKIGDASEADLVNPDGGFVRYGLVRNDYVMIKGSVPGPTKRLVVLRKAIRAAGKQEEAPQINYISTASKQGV
Chain of Methanothermobacter thermautotrophicus large ribosomal subunit (M. thermautotrophicus (endogenous in M. thermautotrophicus cells)) (O26110 whole entry, looked up, tested part not stated): as the sequence (O26110 whole entry, looked up) above

B1: Methanothermobacter thermautotrophicus methanogenic-type seryl-tRNA synthetase (enzyme)
chain: MKFKLKGIIKLSKEVPGIEDDLEKFFTEAESDILRRGVPEGQEHEAAHIKSWRLEGDTLHIEMESGRRVRAHDGLLRLKKPLGQLLGPKYRVGVRGISVTDYTMEMKAPGVSGIPSLAELPFVEDAAITDGTIMVRFQPLEESDLRKHVFDRVVKHARTLVESSDDLTVQVTRATPGEIIARSRSRDFFFEGDPTEEAMRLGWVKKFPGRGQWFYGPKITALHRALEEFFIERIVKPLGFVECLFPKLIPLDIMNKMRYLEGLPEGMYYCSAPSRDPETFEEFKNELIINREVPMDLLKRGIKDPGYVIAPAQCEPFYQFLSHEVVSAEDLPVKFFDRSGWTYRWEAGGSKGLDRVHEFQRVELVWLAEPGETEEIRDRTVELSHDAADELELEWYTEVGDDPFYLEGRKVEERGIEFPDVPKYEMRLSLPGREKGVAVVSANVHGTHFIEGFSIREARNLNIWTGCTGIGLSRWIYGFLAQKGFETGNWPDFIGERVEGVENPRIITWPRQD
In the case of B1, the Kd in test [1] amounted to 1.25 µM; in test [2] it was 1.29 µM.

B2: Methanothermobacter thermautotrophicus arginyl-tRNA synthetase (enzyme)
chain: MFRYIEKEARDSITAALEKLGIKVPPEIKLEEPPNPQLGDLASTVSFELAGKLRRAPIEITADIMSVIETPEIFETIESKGPYINFFVDYGRFSSRLLESIQDDYGSHPPRDERVILEHTSANPNGPLHIGHIRNAIIGDSLARILRMAGYDVETQYYVNDMGRQIAMIVWGLLNLDGDLEDYPGDKMDHRVGKLYFEVNQRLKENPGIRDEVDELIRKYEAGENEELFRKVVEYCLSGMEETMKRLHVHHDRFVWEGQFVRDGTVDRVIESLRKTGYTGENDVLYLDLEEFGLEKELVLTRSDGTSLYSTRDIAYHLQKSEEGDVIIDVLGSDHKLAAEQVGIAVELLGGKRPEVIFYEFITLPEGSMSTRRGVFISVDELMDEAHSRALHEVKKRRDLPDDVADDIAESIGNGAIRYYIARLSPEKHIVFRWDDALSFERGCASIQYAHARACKLLEKASFTGEEDIEDGWKPEGDERELVRLLARFPVVVEESALARRVHPVAQYAQDLANTFNSFYRSTPVIGSDFEGARLRLVDSVRKTLRNALNLLGIHAPETM
In the case of B2, in test [1], the Kd amounted to 4.7 µM.

The Kd is the equilibrium constant for the complex coming apart. The low end stands for tighter binding, the high end for weaker binding.

(Values after publication PMC4005694.)
